Molecular target: 9-fluorenylmethyloxycarbonyl (Fmoc)-glycyl-prolyl-glutamyl-glycyl-isoleucyl-alanyl-glycyl-tryptophanyl-glycine (Gly-Pro-Gln-Gly-Ile-Ala-Gly-Trp-Gly) (Artificial Sequence)
Details: scale: fold

Row | Substance | degradation rate of Fmoc-… per unit weight of enzyme and unit time (first 15 minutes, RP-HPLC)
1 | aminopeptidase-1 (enzyme) | 14.2
2 | collagenase (enzyme) | 26.9
3 | carboxypeptidase A (enzyme) | 38.8
